Test results taken from patent publication US20120277144.

Molecular target: cdc42, P60953
Sequence (P60953 1-188): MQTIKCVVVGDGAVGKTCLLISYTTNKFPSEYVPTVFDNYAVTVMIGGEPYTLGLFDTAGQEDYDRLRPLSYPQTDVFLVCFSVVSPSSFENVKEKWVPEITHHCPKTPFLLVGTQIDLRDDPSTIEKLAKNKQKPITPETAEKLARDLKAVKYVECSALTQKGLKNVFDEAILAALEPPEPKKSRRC

B1: FYVE, RhoGEF and PH domain-containing 5 (FGD5) (protein)
chain: MFRGPKPPIAPKPRLTAPNEWRASVYLNDSLNKCSNGRLPCVDRGLDEGPRSIPKCSESETDEDYIVVPRVPLREDEPKDEGSVGNKALVSPESSAEEEEEREEGGEACGLEGTGAGEDSVAPAAPGAGALSREGEEGTDLALEDEGEGCADEPGTLEQVSRSEEEEKLVQPHRECSLEDSGPWAGEGVFQSDLLLPHIHGEDQEPPDTPGEAEEDDEEGCASTDPAGADEGSGPDRPTEDMGQDAEDTSEEPPEKEELAGVQEAETATDCPEVLEEGCEEATGVTGGEQVDLSEPPDHEKKTNQEVAAATLEDHAQDESAEESCQIVPFENDCMEDFVTSLTGSPYEFFPTESTSFCSESCSPLSESAKGLESEQAPKLGLRAEENPMVGALCGQCGSLQGGAAEGPAAPDVVVVLEEEALDDALANPYVMGVGLPGQAAPGEGGQAASDALGGYGSKEELNCEAEGGLVPADRKNTSTRVRPHSGKVAGYVPETVPEETGPEAGSSAPGIGGAAEEVGKTLLSLEGKPLEASRALPAKPRAFTLYPRSFSVEGREIPVSVYQEPEGSGLDDHRIKRKEDNLSLSCVIGSSGSFSQRNHLPSSGTSTPSSMVDIPPPFDLACITKKPITKSSPSLLIESDSPDKYKKKKSSFKRFLALTFKKKTENKLHVDVNVSSSRSSSESSYHGPSRILEVDRRSLSNSPQLKSRTGKLRASESPSSLIFYRDGKRKGVPFSRTVSRVESFEDRSRPPFLPLPLTKPRSISFPSADTSDYENIPAMNSDYENIQIPPRRPARAGAFTKLFEDQSRALSTANENDGYVDMSSFNAFESKQQSADQDAESAYTEPYKVCPISSAAPKEDLTSDEEQRSSEEEDSASRDPSVTHKVEGQSRALVIAQELLSSEKAYVEMLQHLNLDFHGAVMRALDDMDHEGRDTLAREELRQGLSELPAIHDLHQGILEELEERLSNWESQQKVADVFLAREQGFDHHATHILQFDRYLGLLSENCLHSPRLAAAVREFEQSVQGGSQTAKHRLLRVVQRLFQYQVLLTDYLNNLCPDSAEYDNTQGALSLISKVTDRANDSMEQGENLQKLVHIEHSVRGQGDLLQPGREFLKEGTLMKVTGKNRRPRHLFLMNDVLLYTYPQKDGKYRLKNTLAVANMKVSRPVMEKVPYALKIETSESCLMLSASSCAERDEWYGCLSRALPEDYKAQALAAFHHSVEIRERLGVSLGERPPTLVPVTHVMMCMNCGCDFSLTLRRHHCHACGKIVCRNCSRNKYPLKYLKDRMAKVCDGCFGELKKRGRAVPGLMRERPVSMSFPLSSPRFSGSAFSSVFQSINPSTFKKQKKVPSALTEVAASGEGSAISGYLSRCKRGKRHWKKLWFVIKGKVLYTYMASEDKVALESMPLLGFTIAPEKEEGSSEVGPIFHLYHKKTLFYSFKAEDTNSAQRWIEAMEDASVL
- GTP-cdc42 level in a GEF-activity assay (G-lisa, chemo-luminescent measurement of GTP-bound small G-proteins in lysates of Sham Ad or Ad-FGD5 transfected HUVECs): cdc42-FGD5 binding led to specific activation of cdc42 in a GEF-activity assay
